Test results from the supplement of paper PMC9112550, “Optimization of the antimicrobial peptide Bac7 by deep mutational scanning” (BMC Biology, 2022).

Tested on: Escherichia coli TOP10
Assay: shrunken log2 fold change of peptide-encoding DNA abundance (4.5 h post-induction vs induction); higher = less antimicrobial activity (less host growth inhibition)
Details: time post-induction: 4.5 h; library: site-saturation at positions 5, 18, 19, 20
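Note: peptides expressed intracellularly from a pBAD plasmid library in pooled LB shake-flask culture, induced with 0.3% L-arabinose, DNA abundance read by NGS, three biological replicates, DESeq2 with apeglm shrinkage.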

Sequence | shrunken log2 fold change
RRIRLRPPRLPRPRPRPFFWPRP | 0.296
RRIRLRPPRLPRPRPRPFGHPRP | -0.177
RRIRLRPPRLPRPRPRPFGVPRP | 0.028
RRIRLRPPRLPRPRPRPFHLPRP | -0.177
RRIRLRPPRLPRPRPRPFHTPRP | -0.00564
RRIRLRPPRLPRPRPRPFISPRP | -0.182
RRIRLRPPRLPRPRPRPFKNPRP | -0.499
RRIRLRPPRLPRPRPRPFLKPRP | -0.0488
RRIRLRPPRLPRPRPRPFLMPRP | -0.551
RRIRLRPPRLPRPRPRPFMMPRP | -0.449
RRIRLRPPRLPRPRPRPFNEPRP | -0.255
RRIRLRPPRLPRPRPRPFQNPRP | -0.0252
RRIRLRPPRLPRPRPRPFQWPRP | -0.0972
RRIRLRPPRLPRPRPRPFRMPRP | -0.0132
RRIRLRPPRLPRPRPRPFSAPRP | -0.177
RRIRLRPPRLPRPRPRPFSDPRP | 0.0391
RRIRLRPPRLPRPRPRPFVIPRP | -0.214
RRIRLRPPRLPRPRPRPFWVPRP | -0.11
RRIRLRPPRLPRPRPRPFYSPRP | -0.133
RRIRLRPPRLPRPRPRPFYVPRP | -0.5

Sequence | shrunken log2 fold change
RRIRLRPPRLPRPRPRPGAAPRP | 0.543
RRIRLRPPRLPRPRPRPGAEPRP | 0.505
RRIRLRPPRLPRPRPRPGAYPRP | -0.16
RRIRLRPPRLPRPRPRPGCAPRP | 0.444
RRIRLRPPRLPRPRPRPGCCPRP | 0.387
RRIRLRPPRLPRPRPRPGCDPRP | 0.261
RRIRLRPPRLPRPRPRPGCTPRP | -0.151
RRIRLRPPRLPRPRPRPGCVPRP | 0.182
RRIRLRPPRLPRPRPRPGDCPRP | 0.0644
RRIRLRPPRLPRPRPRPGDGPRP | 0.869
RRIRLRPPRLPRPRPRPGELPRP | 0.0243
RRIRLRPPRLPRPRPRPGFCPRP | 0.272
RRIRLRPPRLPRPRPRPGFGPRP | 0.189
RRIRLRPPRLPRPRPRPGGSPRP | 0.259
RRIRLRPPRLPRPRPRPGHDPRP | 0.147
RRIRLRPPRLPRPRPRPGKCPRP | -0.073
RRIRLRPPRLPRPRPRPGLHPRP | -0.401
RRIRLRPPRLPRPRPRPGLWPRP | 0.863
RRIRLRPPRLPRPRPRPGLYPRP | -0.476
RRIRLRPPRLPRPRPRPGMEPRP | 0.251

Sequence | shrunken log2 fold change
RRIRLRPPRLPRPRPRPGNVPRP | 0.0636
RRIRLRPPRLPRPRPRPGPKPRP | 0.352
RRIRLRPPRLPRPRPRPGPSPRP | 0.25
RRIRLRPPRLPRPRPRPGQFPRP | 0.16
RRIRLRPPRLPRPRPRPGQHPRP | -0.0142
RRIRLRPPRLPRPRPRPGQIPRP | 0.207
RRIRLRPPRLPRPRPRPGSAPRP | 0.273
RRIRLRPPRLPRPRPRPGSMPRP | -0.192
RRIRLRPPRLPRPRPRPGTCPRP | 0.0703
RRIRLRPPRLPRPRPRPGVMPRP | 0.0751
RRIRLRPPRLPRPRPRPGWGPRP | 0.335
RRIRLRPPRLPRPRPRPGWSPRP | 0.0496
RRIRLRPPRLPRPRPRPGYRPRP | -0.16
RRIRLRPPRLPRPRPRPHACPRP | 0.0658
RRIRLRPPRLPRPRPRPHCDPRP | 0.00399
RRIRLRPPRLPRPRPRPHCIPRP | -0.0543
RRIRLRPPRLPRPRPRPHDIPRP | -0.618
RRIRLRPPRLPRPRPRPHECPRP | 0.0907
RRIRLRPPRLPRPRPRPHELPRP | 0.245
RRIRLRPPRLPRPRPRPHFFPRP | -0.128
